Test [1] addresses Papain (E.C.3.4.22.2, from papaya latex) (papaya) (UniProt P00784). The test can be described thus: enzyme inhibition kinetics.
For test [2] the target is unchanged. The settings on record: natural protein.
The target is the same in test [3].
For test [4] the target is unchanged. This is another data set of the same source.
The target is the same in test [5]. The source holds these as a separate data set.
Test [6] has the same target. The source holds these as a separate data set.
Test [7] shares this target. This is another data set of the same source.
Test [8] shares this target. The conditions noted are these: natural protein. The source holds these as a separate data set.
Test [9] has the same target. The source holds these as a separate data set.
Test [10] shares this target. The source holds these as a separate data set.
The target is the same in test [11]. The settings on record: natural protein. This is another data set of the same source.
For test [12] the target is unchanged. The source holds these as a separate data set.
For test [13] the target is unchanged. The source holds these as a separate data set.
For test [14] the target is unchanged. This is another data set of the same source.
Test [15] has the same target. This is another data set of the same source.

Read-outs that look alike come from different tables or passages of the source.

Sequence of Papain (E.C.3.4.22.2, from papaya latex) (papaya) (P00784 134-345): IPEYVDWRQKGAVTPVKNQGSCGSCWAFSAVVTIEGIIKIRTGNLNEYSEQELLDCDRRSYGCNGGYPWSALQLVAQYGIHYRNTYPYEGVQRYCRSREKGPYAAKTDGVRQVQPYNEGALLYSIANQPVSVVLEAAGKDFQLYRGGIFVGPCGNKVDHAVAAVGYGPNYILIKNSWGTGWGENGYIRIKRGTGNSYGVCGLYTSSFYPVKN

For soybean GmCYSB (natural protein), in [1], the Ki was found to be 38.2 nM.
Glycine soja GsCYS had a Ki in [2] of 4.3 nM. In other words, the single-digit nanomolar range.
In the case of SlCYS9, the Ki in test [3] turned out to be 13.3 nM.
LjCYS: in [4], the inhibitory constant (Ki) stood at 13.5 nM.
As for “tomato multicystatin domain SlCYS7 (domain or fragment)”, the inhibitory constant (Ki) in test [1] was 2.7 nM. This counts as single-digit nanomolar.
ZmCYSB: in test [5], the Ki was 4.8 nM.
Consider SiCYS, for which the Ki in test [6] is 5.5 nM.
“Physcomitrella patens C-tailed cystatin domain PpCYS (domain or fragment)” displayed a Ki in test [1] of 1.2 nM.
In [7], PsCYS yielded a Ki of 4.8 nM.
Substance cucumber cystatin CsCYS displayed a Ki in test [8] of 14.4 nM.
Take MsCYS: the Ki in test [9] was 7.1 nM. That is a single-digit nanomolar value.
ThCYS yielded a Ki in test [10] of 14 nM.
Turning to barley cystatin HaCYS3, in test [11], the Ki turned out to be 15.4 nM.
On to EgCYS, for which the inhibitory constant (Ki) in [12] was 6.4 nM.
For “SlCYS8 SE hybrid P-N1 (N-terminal trunk and first inhibitory loop of PpCYS)”, the Ki (papain), fold smaller than that of SlCYS8 in test [1] was 7 fold.
As for JcCYS, in [13], the inhibition constant (Ki) was 7 nM.
In turn, TcCYSB yielded a Ki in test [14] of 5.6 nM.
KsCYS showed a Ki in test [15] of 7.5 nM. This lies in the single-digit nanomolar range.
Consider “SlCYS8 SE hybrid P-1 (first inhibitory loop of PpCYS)”, for which the Ki (papain), fold smaller than that of SlCYS8 in test [1] is 7 fold.
